Measurements taken from the supplement of paper PMC9732359.
± gives the uncertainty stated by the source.

Experiment: protein stability index of a GFP-peptide fusion (yeast GPS) (PSI 1-4); higher = more stable; sorted into four equal gates, so the index is relative within each strain
Outline: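 Yeast carrying a pooled library were grown to mid-log phase in leucine-free medium. Each library plasmid expresses Cherry and has a tiled 17-residue yeast protein peptide fused downstream of GFP. Cells were sorted into four equal gates by GFP/Cherry ratio, and plasmids from each gate were PCR-amplified, Illumina-sequenced and assigned to strains by barcode. Summing, across gates, the read frequency times the gate number gave each peptide's protein stability index.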

Row | Sequence | protein stability index (doa10∆) | protein stability index (pdr5∆) | protein stability index (san1∆) | protein stability index (ubr1∆)
1 | GPPYTTDEHLIFNSGKM [ISW2] | 3.13 ± 0.059 | 3.26 ± 0.058 | 3.06 ± 0.049 | 2.99 ± 0.048
2 | QEKNFQTGIFVYQNNIT [RPB5] | 2.49 ± 0.064 | 1.52 ± 0.064 | 2.88 ± 0.09 | 2.38 ± 0.082
3 | LPNETINDRNDRAIRKT [DIS3] | – | – | – | 2.29 ± 0.11
4 | YFLHLSVFNAELLKLLN [YCS4] | 1.26 ± 0.053 | 1.61 ± 0.058 | 1.8 ± 0.099 | 1.51 ± 0.053
5 | KKKTKKELELERKERED [SWI1] | 3.62 ± 0.12 | 3.37 ± 0.073 | 3.51 ± 0.051 | 3.31 ± 0.043
6 | HLEEYGYLIQVLLTFLQ [YCS4] | 1.59 ± 0.078 | 1.35 ± 0.09 | 1.21 ± 0.17 | 1.13 ± 0.097
7 | DSIPRDVAYLLKSESAT [YGL172W/NUP49] | 2.74 ± 0.092 | 3.11 ± 0.079 | 2.91 ± 0.05 | 3.19 ± 0.074
8 | LYSYLIKENFFERIMIL [YJL039C/NUP192] | 1.48 ± 0.063 | 1.42 ± 0.073 | 1.49 ± 0.2 | 1.26 ± 0.11
9 | VTNIRRIIQDNISPRLV [RRP46] | 2.3 ± 0.09 | 2.63 ± 0.1 | – | 2.23 ± 0.074
10 | SAESWGTGRAVARIPRV [RPL4A] | 3.06 ± 0.19 | 3.51 ± 0.28 | 2.65 ± 0.21 | 2.75 ± 0.27
11 | SDEKKDGDASKPAFSFG [YJL041W/NSP1] | 3.24 ± 0.092 | 2.64 ± 0.23 | 3.25 ± 0.056 | 3.23 ± 0.1
12 | TAFATEFFVQVLTHESL [DLS1] | 2.47 ± 0.11 | 2.71 ± 0.11 | 2.73 ± 0.088 | 2.02 ± 0.046
13 | ARDLATMTYEEVAKRLV [FAS1] | 2.94 ± 0.11 | 3.3 ± 0.082 | 3.12 ± 0.13 | 3.02 ± 0.073
14 | IVPLTEGDIQVLKSYGA [RPT1] | 3.14 ± 0.09 | 3.14 ± 0.11 | 2.77 ± 0.062 | 2.99 ± 0.052
15 | NDYLEKHSVTEYIFEAH [CDC53] | – | 2.79 ± 0.12 | 3.12 ± 0.094 | 3.17 ± 0.1
16 | YSTIRQLVYKRGFGKIN [RPL7A] | 2.34 ± 0.064 | 1.97 ± 0.047 | 2.24 ± 0.11 | 1.98 ± 0.049
17 | KQGRIKNATEELLRLAN [CSN12] | 3.15 ± 0.17 | 3 ± 0.13 | 2.6 ± 0.14 | 3.36 ± 0.22
18 | VGSVTYQVDEDVKSSLS [YJL039C/NUP192] | 3.26 ± 0.15 | 3.2 ± 0.13 | 3.29 ± 0.062 | 3.48 ± 0.1
19 | GTGRSGQGAFGNMCRGG [RPL4A] | 3.49 ± 0.14 | 3.37 ± 0.078 | 3.33 ± 0.11 | 3.24 ± 0.063
20 | VDPASAPNHSPEIDNLD [RRP6] | 3.1 ± 0.11 | 2.98 ± 0.074 | 3.25 ± 0.072 | 3.16 ± 0.059
21 | GVPDDKWEQTYKKPTGG [FAS1] | 3.38 ± 0.07 | 3.29 ± 0.1 | 3.2 ± 0.093 | 3.09 ± 0.069
22 | ENFSNGISLVMEIVANA [MED1] | 2.12 ± 0.067 | 2.53 ± 0.054 | 2.5 ± 0.057 | 2.51 ± 0.034
23 | LVSEARTLWPEFIPPDP [SSN8] | 2.61 ± 0.041 | 2.8 ± 0.043 | 2.73 ± 0.038 | 3.03 ± 0.033
24 | IRVTNSFALPFEEDEKN [RPN8] | 2.67 ± 0.062 | 2.48 ± 0.046 | 3.05 ± 0.044 | 3.15 ± 0.043
25 | PNFLGNCNIKDFKPPYI [SWP82] | 2.62 ± 0.048 | 2.64 ± 0.041 | 2.61 ± 0.054 | 2.65 ± 0.031
26 | IETVMTQEQFVKRRRDM [SRB4] | 2.94 ± 0.22 | 3.24 ± 0.12 | 2.92 ± 0.1 | 2.49 ± 0.26
27 | WRLLFIDKFIMVVQKYK [GRR1] | 2.07 ± 0.054 | 1.79 ± 0.052 | 1.66 ± 0.083 | 2.38 ± 0.043

Row | Sequence | protein stability index (doa10∆) | protein stability index (pdr5∆) | protein stability index (san1∆) | protein stability index (ubr1∆)
28 | NEKVAVMRNTYNTRKNA [GAL11] | 2.76 ± 0.14 | 3.14 ± 0.06 | 2.18 ± 0.072 | 2.37 ± 0.09
29 | LHDEYLVSMRYPEDKKT [RPN3] | 2.81 ± 0.26 | – | – | –
30 | YLTGGQQPTASDNIASL [SMD1] | 3 ± 0.21 | 2.57 ± 0.18 | 3.04 ± 0.099 | 2.61 ± 0.18
31 | MFILSKIADLVRIPPDQ [RPC25] | – | 2.69 ± 0.22 | – | –
32 | SVQLPDMAKLKKMMNTS [SWI3] | 2.14 ± 0.082 | 1.82 ± 0.092 | 1.91 ± 0.11 | 1.94 ± 0.082
33 | NAGPNSNIPNLLRNLES [YDL088C/ASM4] | 2.35 ± 0.043 | 1.96 ± 0.043 | 2.23 ± 0.073 | 2.46 ± 0.031
34 | DAITVKDVKAWAGKRLW [COR1] | 3.01 ± 0.069 | 2.8 ± 0.067 | 2.87 ± 0.063 | 2.37 ± 0.044
35 | HPNRVLEHLHSTAFQNT [COR1] | 2.79 ± 0.041 | 2.92 ± 0.047 | 2.4 ± 0.051 | 2.92 ± 0.045
36 | AFHLHCINKWIKTRDAC [HRT1] | 1.86 ± 0.089 | 2 ± 0.076 | 1.66 ± 0.14 | 2.19 ± 0.065
37 | TKPNVLNDPSLKIQFIL [SIN4] | 2.03 ± 0.043 | 2.36 ± 0.055 | 2.57 ± 0.049 | 2.538 ± 0.025
38 | YKIPKVMKDIYKVENVT [ESC2] | – | 3.52 ± 0.16 | – | –
39 | TKVLQFAAKQRQELQMQ [SNF2] | 2.3 ± 0.12 | 2.71 ± 0.076 | 2.51 ± 0.059 | 2.31 ± 0.083
40 | TDKVSLSQPVSASKHEY [SIR4] | 2.29 ± 0.079 | 2.53 ± 0.057 | 2.24 ± 0.082 | 1.95 ± 0.041
41 | IIMQADLALKMGVPIYG [FAS2] | 1.63 ± 0.12 | 2.04 ± 0.068 | 1.79 ± 0.069 | 2.11 ± 0.044
42 | LVPTASFFIASQLQEQF [FAS1] | 1.35 ± 0.047 | 1.88 ± 0.053 | 1.53 ± 0.086 | 1.86 ± 0.04
43 | KKVSRRNARAARAAKIA [RPL13B] | 3.05 ± 0.084 | 2.65 ± 0.11 | 2.63 ± 0.18 | 2.69 ± 0.045
44 | IDVTFTKVNNQLIKVAV [RPL9A] | 2.23 ± 0.068 | 1.87 ± 0.048 | 1.75 ± 0.087 | 2.44 ± 0.036
45 | EIEIEGVMSLLQKSSKS [YAR002W/NUP60] | 2.99 ± 0.11 | 3.05 ± 0.16 | 3.26 ± 0.09 | 3.25 ± 0.072
46 | RQQKLLEDQQRQQKLLL [SWI1] | 3.2 ± 0.12 | 3.05 ± 0.062 | 3.03 ± 0.077 | 3.25 ± 0.069
47 | SLAATYSMISLQNCCII [ARP9] | 1.47 ± 0.057 | 1.33 ± 0.056 | 1.26 ± 0.099 | 1.26 ± 0.041
48 | KVAPAPFGAKSTKSNKT [RPL8A] | 2.68 ± 0.1 | 2.84 ± 0.076 | 2.74 ± 0.071 | 2.94 ± 0.068
49 | SKSEFAHRIMLTNILRM [FAS2] | 1.62 ± 0.066 | 1.67 ± 0.068 | 1.46 ± 0.14 | 1.85 ± 0.081
50 | LIPASDLSWSKQTDTGI [PRP8] | 2.32 ± 0.089 | 2.68 ± 0.063 | 2.79 ± 0.065 | 2.38 ± 0.044
51 | IKTFYWLEQFLSCVKND [NUT1] | 1.31 ± 0.052 | 1.26 ± 0.038 | 1.18 ± 0.061 | 1.13 ± 0.035
52 | STVKVSDLNLTDRQKKL [YLR018C/POM34] | 2.9 ± 0.063 | 2.75 ± 0.048 | 2.79 ± 0.047 | 2.76 ± 0.037
53 | ACDPSEIEPILMEIHNI [RGR1] | 2.82 ± 0.13 | 2.74 ± 0.1 | 3.16 ± 0.08 | 2.92 ± 0.067
54 | QDDADPMVSVMKMDKSP [RPT2] | 1.16 ± 0.065 | 1.27 ± 0.079 | 1.29 ± 0.26 | 1.52 ± 0.073
